Tested on: human hemoglobin
Assay: Proteolysis of human hemoglobin by proteases, fructosyl amino acid detected (Comparative Example 3)
Assay type: biochemical
Conditions: 1 mg/mL protease, 37° C. for 30 minutes; assay apparatus 2
Description: FIG. 2 was the flow type assay apparatus for fructosyl amino acid with the dialysis module. The buffer B was pumped out from the buffer tank (24) using the pump (25), and a 100 μL portion of the sample was injected using the valve (4). The protease-immobilized enzyme column (14), the second immobilized enzyme column (19), the electrode for hydrogen peroxide (20) and the flow type calorimeter (16) were not disposed. The fructosyl amino acid oxidase-immobilized column was placed in the first immobilized enzyme column (17). The injected sample transferred with the flowing buffer B, was carried to the dialysis module (27) in the incubator (13), and only the components with low molecular weight in the sample were permeated through the regenerated cellulose membrane with the membrane thickness of 20 μm and molecular weight cut off of 12000 to 14000 to a detection system (17, 18) of the fructosyl amino acid. Since the buffer A was pumped out from the buffer tank (1) by the pump (2), the components with low molecular weight in the sample dialyzed by the dialysis module passed through the fructosyl amino acid oxidase-immobilized column (17) and the electrode for hydrogen peroxide (18), and hydrogen peroxide produced from the fructosyl amino acid in the sample was detected. […]

B1: Proteinase K: protease from Tritirachium album, Sigma-Aldrich Co. (protein, UniProt P06873 106-384, looked up)
Proteinase K: AAQTNAPWGLARISSTSPGTSTYYYDESAGQGSCVYVIDTGIEASHPEFEGRAQMVKTYYYSSRDGNGHGTHCAGTVGSRTYGVAKKTQLFGVKVLDDNGSGQYSTIIAGMDFVASDKNNRNCPKGVVASLSLGGGYSSSVNSAAARLQSSGVMVAVAAGNNNADARNYSPASEPSVCTVGASDRYDRRSSFSNYGSVLDIFGPGTSILSTWIGGSTRSISGTSMATPHVAGLAAYLMTLGKTTAASACRYIADTANKGDLSNIPFGTVNLLAYNNYQA
- Result (detected value of the fructosyl amino acid after proteolysis): C (the detected value of less than 20 pA)
